{"source": "the supplement of paper PMC7125110", "parents": {"B1": {"name": "glmS ribozyme (parent)", "chain": "AUAAAAGCGCCAGAACUACAGAAAUGUAGUUGACGAGGAGGAGGUUUAUCGAAUUUUCGGCGGAUGCCUCCAAA"}}, "settings_in_all_cases": "with glucosamine-6-phosphate", "key": {"[1]": {"variants_of": "B1", "assay": "kcat; higher = faster cleavage; RNA array", "method_in_brief": "(§1)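 On sequenced MiSeq chips, barcoded ribozyme variants were made in situ by E. coli RNA polymerase and followed at 37 °C through a hybridised Cy3 probe. Glucosamine-6-phosphate was flowed in at 40 μM to 10 mM in HEPES/KCl/Mg(OAc)2 buffer. Exponential fits to normalised per-tile medians gave kobs, and weighted Michaelis–Menten fits gave kcat and KM.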"}, "[2]": {"variants_of": "B1", "assay": "self-cleavage kobs at 40 uM GlcN6P; higher = faster cleavage; RNA array", "method_in_brief": "as §1"}, "[3]": {"variants_of": "B1", "assay": "self-cleavage kobs at 640 uM GlcN6P; higher = faster cleavage; RNA array", "method_in_brief": "as §1"}, "[4]": {"variants_of": "B1", "assay": "self-cleavage kobs at 2500 uM GlcN6P; higher = faster cleavage; RNA array", "method_in_brief": "as §1"}, "[5]": {"variants_of": "B1", "assay": "self-cleavage kobs at 10000 uM GlcN6P; higher = faster cleavage; RNA array", "method_in_brief": "as §1"}, "[6]": {"variants_of": "B1", "assay": "KM; higher = weaker cofactor use; RNA array", "method_in_brief": "as §1"}, "[7]": {"variants_of": "B1", "assay": "self-cleavage kobs at 160 uM GlcN6P; higher = faster cleavage; RNA array", "method_in_brief": "as §1"}}, "note": "± gives the standard error. For some assays here: Fewer inactive variants are shown than the library holds.", "data": [{"variant": "U54G U55A C70G", "values": [{"measurement": "kcat", "setting": "[1]", "result": "0.000128 ± 1.7e-05", "unit": "s⁻¹"}, {"measurement": "self-cleavage kobs at 40 uM GlcN6P", "setting": "[2]", "result": "6.4e-05 ± 1.6e-05", "unit": "s⁻¹"}, {"measurement": "self-cleavage kobs at 640 uM GlcN6P", "setting": "[3]", "result": "0.000102 ± 1.5e-05", "unit": "s⁻¹"}, {"measurement": "self-cleavage kobs at 2500 uM GlcN6P", "setting": "[4]", "result": "0.000157 ± 2.6e-05", "unit": "s⁻¹"}, {"measurement": "self-cleavage kobs at 10000 uM GlcN6P", "setting": "[5]", "result": "0.000145 ± 2.6e-05", "unit": "s⁻¹"}]}, {"variant": "A53C G66A", "values": [{"measurement": "kcat", "setting": "[1]", "result": "0.00434 ± 0.0011", "unit": "s⁻¹"}, {"measurement": "KM", "setting": "[6]", "result": "1670 ± 640", "unit": "µM"}, {"measurement": "self-cleavage kobs at 40 uM GlcN6P", "setting": "[2]", "result": "0.000154 ± 2.2e-05", "unit": "s⁻¹"}, {"measurement": "self-cleavage kobs at 160 uM GlcN6P", "setting": "[7]", "result": "0.000292 ± 6.4e-05", "unit": "s⁻¹"}, {"measurement": "self-cleavage kobs at 640 uM GlcN6P", "setting": "[3]", "result": "0.00107 ± 0.00017", "unit": "s⁻¹"}, {"measurement": "self-cleavage kobs at 2500 uM GlcN6P", "setting": "[4]", "result": "0.00288 ± 0.00047", "unit": "s⁻¹"}, {"measurement": "self-cleavage kobs at 10000 uM GlcN6P", "setting": "[5]", "result": "0.00374 ± 0.00053", "unit": "s⁻¹"}]}, {"variant": "A52G C70U C71G", "values": [{"measurement": "kcat", "setting": "[1]", "result": "2.63e-05 ± 1.1e-05", "unit": "s⁻¹"}, {"measurement": "self-cleavage kobs at 2500 uM GlcN6P", "setting": "[4]", "result": "4.78e-05 ± 1.9e-05", "unit": "s⁻¹"}]}, {"variant": "U55C U69A", "values": [{"measurement": "kcat", "setting": "[1]", "result": "1.74e-05 ± 6.8e-06", "unit": "s⁻¹"}]}, {"variant": "C50U G59A", "values": [{"measurement": "kcat", "setting": "[1]", "result": "< 1e-05", "unit": "s⁻¹"}, {"measurement": "self-cleavage kobs at 40 uM GlcN6P", "setting": "[2]", "result": "< 1e-05", "unit": "s⁻¹"}, {"measurement": "self-cleavage kobs at 160 uM GlcN6P", "setting": "[7]", "result": "< 1e-05", "unit": "s⁻¹"}, {"measurement": "self-cleavage kobs at 2500 uM GlcN6P", "setting": "[4]", "result": "< 1e-05", "unit": "s⁻¹"}, {"measurement": "self-cleavage kobs at 10000 uM GlcN6P", "setting": "[5]", "result": "< 1e-05", "unit": "s⁻¹"}]}, {"variant": "A52C U54G G63A", "values": [{"measurement": "kcat", "setting": "[1]", "result": "1.25e-05 ± 2.6e-06", "unit": "s⁻¹"}, {"measurement": "self-cleavage kobs at 2500 uM GlcN6P", "setting": "[4]", "result": "< 1e-05", "unit": "s⁻¹"}, {"measurement": "self-cleavage kobs at 10000 uM GlcN6P", "setting": "[5]", "result": "< 1e-05", "unit": "s⁻¹"}]}, {"variant": "U55A U69A", "values": [{"measurement": "kcat", "setting": "[1]", "result": "9.24e-05 ± 1e-05", "unit": "s⁻¹"}, {"measurement": "self-cleavage kobs at 40 uM GlcN6P", "setting": "[2]", "result": "7.99e-05 ± 1.9e-05", "unit": "s⁻¹"}, {"measurement": "self-cleavage kobs at 160 uM GlcN6P", "setting": "[7]", "result": "9.45e-05 ± 2.4e-05", "unit": "s⁻¹"}, {"measurement": "self-cleavage kobs at 640 uM GlcN6P", "setting": "[3]", "result": "9.88e-05 ± 1.9e-05", "unit": "s⁻¹"}, {"measurement": "self-cleavage kobs at 2500 uM GlcN6P", "setting": "[4]", "result": "7.93e-05 ± 1.3e-05", "unit": "s⁻¹"}, {"measurement": "self-cleavage kobs at 10000 uM GlcN6P", "setting": "[5]", "result": "0.000129 ± 2.7e-05", "unit": "s⁻¹"}]}, {"variant": "U55C G59A", "values": [{"measurement": "kcat", "setting": "[1]", "result": "0.000118 ± 2.1e-05", "unit": "s⁻¹"}, {"measurement": "KM", "setting": "[6]", "result": "4900 ± 1900", "unit": "µM"}, {"measurement": "self-cleavage kobs at 2500 uM GlcN6P", "setting": "[4]", "result": "3.74e-05 ± 1.1e-05", "unit": "s⁻¹"}, {"measurement": "self-cleavage kobs at 10000 uM GlcN6P", "setting": "[5]", "result": "7.97e-05 ± 1.4e-05", "unit": "s⁻¹"}]}, {"variant": "A52U C67A", "values": [{"measurement": "kcat", "setting": "[1]", "result": "0.000206 ± 1.5e-05", "unit": "s⁻¹"}, {"measurement": "KM", "setting": "[6]", "result": "1480 ± 240", "unit": "µM"}, {"measurement": "self-cleavage kobs at 640 uM GlcN6P", "setting": "[3]", "result": "6.53e-05 ± 8.3e-06", "unit": "s⁻¹"}, {"measurement": "self-cleavage kobs at 2500 uM GlcN6P", "setting": "[4]", "result": "0.000124 ± 1.6e-05", "unit": "s⁻¹"}, {"measurement": "self-cleavage kobs at 10000 uM GlcN6P", "setting": "[5]", "result": "0.000183 ± 2.1e-05", "unit": "s⁻¹"}]}, {"variant": "C50U U57G", "values": [{"measurement": "kcat", "setting": "[1]", "result": "< 1e-05", "unit": "s⁻¹"}, {"measurement": "self-cleavage kobs at 640 uM GlcN6P", "setting": "[3]", "result": "< 1e-05", "unit": "s⁻¹"}]}, {"variant": "U54C G62C", "values": [{"measurement": "kcat", "setting": "[1]", "result": "< 1e-05", "unit": "s⁻¹"}, {"measurement": "KM", "setting": "[6]", "result": "133 ± 48", "unit": "µM"}, {"measurement": "self-cleavage kobs at 40 uM GlcN6P", "setting": "[2]", "result": "< 1e-05", "unit": "s⁻¹"}, {"measurement": "self-cleavage kobs at 160 uM GlcN6P", "setting": "[7]", "result": "< 1e-05", "unit": "s⁻¹"}, {"measurement": "self-cleavage kobs at 640 uM GlcN6P", "setting": "[3]", "result": "< 1e-05", "unit": "s⁻¹"}, {"measurement": "self-cleavage kobs at 2500 uM GlcN6P", "setting": "[4]", "result": "< 1e-05", "unit": "s⁻¹"}]}, {"variant": "U55C G60U", "values": [{"measurement": "kcat", "setting": "[1]", "result": "1.04e-05 ± 3.4e-06", "unit": "s⁻¹"}, {"measurement": "self-cleavage kobs at 40 uM GlcN6P", "setting": "[2]", "result": "< 1e-05", "unit": "s⁻¹"}, {"measurement": "self-cleavage kobs at 160 uM GlcN6P", "setting": "[7]", "result": "< 1e-05", "unit": "s⁻¹"}, {"measurement": "self-cleavage kobs at 640 uM GlcN6P", "setting": "[3]", "result": "< 1e-05", "unit": "s⁻¹"}, {"measurement": "self-cleavage kobs at 10000 uM GlcN6P", "setting": "[5]", "result": "< 1e-05", "unit": "s⁻¹"}]}, {"variant": "A52G U69G", "values": [{"measurement": "kcat", "setting": "[1]", "result": "5.99e-05 ± 2e-05", "unit": "s⁻¹"}, {"measurement": "self-cleavage kobs at 160 uM GlcN6P", "setting": "[7]", "result": "7.33e-05 ± 1.4e-05", "unit": "s⁻¹"}, {"measurement": "self-cleavage kobs at 640 uM GlcN6P", "setting": "[3]", "result": "0.000113 ± 2.5e-05", "unit": "s⁻¹"}, {"measurement": "self-cleavage kobs at 2500 uM GlcN6P", "setting": "[4]", "result": "7.25e-05 ± 1.2e-05", "unit": "s⁻¹"}]}, {"variant": "U54A U55A", "values": [{"measurement": "kcat", "setting": "[1]", "result": "0.044 ± 0.016", "unit": "s⁻¹"}, {"measurement": "KM", "setting": "[6]", "result": "1290 ± 540", "unit": "µM"}, {"measurement": "self-cleavage kobs at 40 uM GlcN6P", "setting": "[2]", "result": "0.00147 ± 0.00017", "unit": "s⁻¹"}, {"measurement": "self-cleavage kobs at 160 uM GlcN6P", "setting": "[7]", "result": "0.00297 ± 0.001", "unit": "s⁻¹"}, {"measurement": "self-cleavage kobs at 10000 uM GlcN6P", "setting": "[5]", "result": "0.0388 ± 0.0094", "unit": "s⁻¹"}]}, {"variant": "A53C G60A", "values": [{"measurement": "kcat", "setting": "[1]", "result": "2.08e-05 ± 2.9e-06", "unit": "s⁻¹"}, {"measurement": "KM", "setting": "[6]", "result": "7110 ± 2300", "unit": "µM"}, {"measurement": "self-cleavage kobs at 40 uM GlcN6P", "setting": "[2]", "result": "< 1e-05", "unit": "s⁻¹"}, {"measurement": "self-cleavage kobs at 160 uM GlcN6P", "setting": "[7]", "result": "< 1e-05", "unit": "s⁻¹"}]}, {"variant": "G51U G60C C68A", "values": [{"measurement": "kcat", "setting": "[1]", "result": "2.85e-05 ± 8.6e-06", "unit": "s⁻¹"}]}, {"variant": "A52G U65A", "values": [{"measurement": "kcat", "setting": "[1]", "result": "0.00041 ± 0.00018", "unit": "s⁻¹"}, {"measurement": "self-cleavage kobs at 640 uM GlcN6P", "setting": "[3]", "result": "6.01e-05 ± 1.2e-05", "unit": "s⁻¹"}, {"measurement": "self-cleavage kobs at 2500 uM GlcN6P", "setting": "[4]", "result": "0.000103 ± 1.6e-05", "unit": "s⁻¹"}, {"measurement": "self-cleavage kobs at 10000 uM GlcN6P", "setting": "[5]", "result": "0.00028 ± 4.3e-05", "unit": "s⁻¹"}]}, {"variant": "A53G U57A", "values": [{"measurement": "kcat", "setting": "[1]", "result": "0.000309 ± 2.3e-05", "unit": "s⁻¹"}, {"measurement": "KM", "setting": "[6]", "result": "3400 ± 490", "unit": "µM"}, {"measurement": "self-cleavage kobs at 640 uM GlcN6P", "setting": "[3]", "result": "4.7e-05 ± 1.1e-05", "unit": "s⁻¹"}, {"measurement": "self-cleavage kobs at 2500 uM GlcN6P", "setting": "[4]", "result": "0.000134 ± 2.3e-05", "unit": "s⁻¹"}, {"measurement": "self-cleavage kobs at 10000 uM GlcN6P", "setting": "[5]", "result": "0.00023 ± 2.9e-05", "unit": "s⁻¹"}]}]}
